Test results reported in patent EP4634231A1 (dated 2025).

How the values were obtained:
[1] = target: T1, MUC-16 (CA125) expressed on SW1990 and OVCAR3 cancer cells (human, UniProt Q8WXI7 1-14507); assay: flow cytometry on MUC16 expressing cancer cells
T1 construct: whole, on cells

[2] = target: T1, MUC-16 (CA125) expressed on SW1990 and …; assay: flow cytometry saturation binding (MFI against concentration) on MUC-16 expressing SW1990 and OVCAR3 cells

| Binder | EC50 [1] | EC50 [2] | Kd [2] |
| --- | --- | --- | --- |
| 89Zr-DFO-M16Ab, M16Ab conjugated with p-SCN-Bn-DFO and radiolabeled with 89Zr (antibody, V domains shown, p-SCN-Bn-DFO chelator loaded with 89Zr; sites not stated, also called 89Zr-DFO-M16Ab1; 89Zr-M16Ab1) VH: QVQLVESGGGVVQPGGSLRLSCAASGFTFSTYGMHWVRQAPGKGLEWVAVISYDGSNKYYADSVKGRFTISRDNTNNSLYLQMSGLRAEDSAVYYCAKDVYGDFAVDSWGQGTLVTVSS VL: not shown | 10 nM | – | – |
| DFO-M16Ab1, M16Ab1 IgG1 conjugated with p-SCN-Bn-DFO (antibody, V domains shown, p-SCN-Bn-DFO (deferoxamine) conjugated, average of two DFO molecules per antibody; sites not stated, also called DFO-MUC16 Ab 1; DFO-MUC16 AB1) VH: QVQLVESGGGVVQPGGSLRLSCAASGFTFSTYGMHWVRQAPGKGLEWVAVISYDGSNKYYADSVKGRFTISRDNTNNSLYLQMSGLRAEDSAVYYCAKDVYGDFAVDSWGQGTLVTVSS VL: not shown | – | 10.3 nM | 12.7 nM |
| M16Ab1, fully human anti-MUC16 monoclonal antibody, full-length IgG1 (antibody, V domains shown, also called MUC16 Ab1; MUC-16 Ab1) VH: QVQLVESGGGVVQPGGSLRLSCAASGFTFSTYGMHWVRQAPGKGLEWVAVISYDGSNKYYADSVKGRFTISRDNTNNSLYLQMSGLRAEDSAVYYCAKDVYGDFAVDSWGQGTLVTVSS VL: not shown | – | 9.1 nM | 10.9 nM |
